Laboratory results from paper doi:10.1101/609503.

Molecular target: MepS (E. coli) (UniProt P0AFV4)
Assay: MST

MepS (E. coli), sequence (P0AFV4 27-188): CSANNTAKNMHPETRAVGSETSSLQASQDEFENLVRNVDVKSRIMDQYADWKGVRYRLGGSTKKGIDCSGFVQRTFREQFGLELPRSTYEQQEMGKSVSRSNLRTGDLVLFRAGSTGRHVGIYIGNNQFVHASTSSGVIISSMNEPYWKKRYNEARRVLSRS

Kd: 0.145 µM
Substance: NlpI (soluble version, residues 19-294) (from UniProt P0AFB1 19-294) (natural protein)
